Data set [1] concerns the target Factor X (FX), P00742.
The target in data set [2] is Factor VIIIa (FVIIIa), P00451.
Data set [3] addresses Factor X (FX), active site titrated and DFP/EGR-cmk treated zymogen, P00742.
Data set [4] has as its target Factor X, P00742.
The target of data set [5] is plasma purified human AT-III (antithrombin III), in complex with low molecular weight heparin.

Sequence of Factor VIIIa (FVIIIa), P00451 (P00451 other isoform, or with tags, fused parts or gaps): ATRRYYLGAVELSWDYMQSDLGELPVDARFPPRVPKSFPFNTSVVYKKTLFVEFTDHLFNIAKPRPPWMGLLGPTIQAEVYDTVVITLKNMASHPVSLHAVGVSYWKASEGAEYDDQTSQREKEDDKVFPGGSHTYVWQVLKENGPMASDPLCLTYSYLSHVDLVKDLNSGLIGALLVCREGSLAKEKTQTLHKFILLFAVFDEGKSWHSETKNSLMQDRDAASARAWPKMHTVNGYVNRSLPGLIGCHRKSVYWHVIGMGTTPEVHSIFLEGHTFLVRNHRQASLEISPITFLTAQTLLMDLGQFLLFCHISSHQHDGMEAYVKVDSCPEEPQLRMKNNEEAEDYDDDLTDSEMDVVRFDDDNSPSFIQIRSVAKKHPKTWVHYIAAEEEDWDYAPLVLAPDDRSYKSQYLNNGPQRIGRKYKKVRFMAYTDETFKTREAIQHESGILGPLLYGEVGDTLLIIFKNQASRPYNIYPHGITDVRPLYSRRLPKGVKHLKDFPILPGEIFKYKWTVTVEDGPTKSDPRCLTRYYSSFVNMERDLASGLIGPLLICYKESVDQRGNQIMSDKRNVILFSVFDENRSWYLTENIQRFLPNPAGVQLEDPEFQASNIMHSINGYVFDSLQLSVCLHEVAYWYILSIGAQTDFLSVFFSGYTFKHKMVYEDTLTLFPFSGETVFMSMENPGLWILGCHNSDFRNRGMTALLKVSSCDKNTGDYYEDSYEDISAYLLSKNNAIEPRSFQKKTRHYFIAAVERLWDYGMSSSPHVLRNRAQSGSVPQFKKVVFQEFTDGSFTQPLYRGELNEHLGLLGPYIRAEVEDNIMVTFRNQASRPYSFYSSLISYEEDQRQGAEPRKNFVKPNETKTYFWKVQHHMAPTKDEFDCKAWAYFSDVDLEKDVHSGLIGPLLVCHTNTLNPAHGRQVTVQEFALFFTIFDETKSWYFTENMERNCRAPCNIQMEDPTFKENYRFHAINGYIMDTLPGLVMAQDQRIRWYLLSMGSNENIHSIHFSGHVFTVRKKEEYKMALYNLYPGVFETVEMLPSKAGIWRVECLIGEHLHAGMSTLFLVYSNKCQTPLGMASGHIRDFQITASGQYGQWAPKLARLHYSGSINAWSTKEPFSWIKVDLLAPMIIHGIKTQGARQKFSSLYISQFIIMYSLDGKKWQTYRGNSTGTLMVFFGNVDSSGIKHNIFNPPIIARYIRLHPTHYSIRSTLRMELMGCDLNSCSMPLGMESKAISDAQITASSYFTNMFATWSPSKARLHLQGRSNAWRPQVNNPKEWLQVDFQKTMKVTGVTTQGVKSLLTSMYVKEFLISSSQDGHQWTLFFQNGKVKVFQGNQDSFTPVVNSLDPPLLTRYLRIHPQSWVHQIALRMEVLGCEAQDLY
Sequence of Factor X (FX), P00742 (P00742 whole entry, looked up): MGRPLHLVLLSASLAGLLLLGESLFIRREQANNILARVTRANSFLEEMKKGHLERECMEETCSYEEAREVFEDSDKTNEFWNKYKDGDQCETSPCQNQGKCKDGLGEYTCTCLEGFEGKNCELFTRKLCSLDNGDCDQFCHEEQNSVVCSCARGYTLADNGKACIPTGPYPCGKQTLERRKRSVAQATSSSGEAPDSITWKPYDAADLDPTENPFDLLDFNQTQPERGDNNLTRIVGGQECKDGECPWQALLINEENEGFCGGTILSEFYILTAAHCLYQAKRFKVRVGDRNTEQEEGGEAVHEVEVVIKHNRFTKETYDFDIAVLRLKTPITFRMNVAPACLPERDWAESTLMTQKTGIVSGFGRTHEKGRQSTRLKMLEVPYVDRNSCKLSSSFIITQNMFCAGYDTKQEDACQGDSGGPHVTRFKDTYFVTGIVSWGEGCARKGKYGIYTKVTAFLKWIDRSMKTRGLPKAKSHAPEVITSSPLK
Sequence of Factor X (FX), active site titrated and DFP/EGR-cmk treated zymogen, P00742 (P00742 whole entry, looked up): as above
Sequence of Factor X, P00742 (P00742 whole entry, looked up): as above

B1: FIX of SEQ ID NO:394, with the replacements R318Y/R338E/T343R (activated form, FIXa) (protein)
chain 1: not shown
chain 2: not shown
In data set [1], B1 showed a Cofactor-Dependent Indirect kcat/KM (M-1s-1), FX activation of 1.2e+08 M⁻¹ s⁻¹; a Fold Increase over BeneFIX FIX (kcat/KM, FX activation) of 2.8 fold; a Pro-coagulant Activity, Fold Change (in vitro) of 2.8 fold. In data set [2], this protein displayed an FIX activity (mean) at 5 ng/mL FVIIIa, Test 1 of 278; an FIX activity (mean) at 10 ng/mL FVIIIa, Test 2 of 479; an FIX activity (mean) at 15 ng/mL FVIIIa, Test 3 of 622; a Fold increase after FVIIIa addition (5 ng/mL), Test 1 of 225 fold. Besides, in data set [2], the Fold increase after FVIIIa addition (10 ng/mL), Test 2 amounted to 384 fold; the Fold increase after FVIIIa addition (15 ng/mL), Test 3 came out at 486 fold; the Ratio (CB2679d vs BeneFIX) of FIX activity at 5 ng/mL FVIIIa came out at 2; the Ratio (CB2679d vs BeneFIX) of FIX activity at 10 ng/mL FVIIIa is 2. Moreover, in data set [2], the Ratio (CB2679d vs BeneFIX) of FIX activity at 15 ng/mL FVIIIa was 2.

B2: FIXa-K247N/N249S/R338E/T343R/R403E (protein)
chain 1: not shown
chain 2: not shown
The term kcat denotes the maximal rate divided by the concentration of active sites. In general, KM refers to the concentration of substrate that gives half-maximal velocity. Take B2: the “catalytic activity (kcat/KM for activation of FX)” value (“catalytic activity” below) in data set [3] is listed as “improved activity when combined with other mutations”. Moreover, the kcat in data set [1] stood at 14.6 s⁻¹. Further, the KM in data set [4] is 0.0263 µM.

B3: FIXa-K228N/K247N/N249S (protein)
chain 1: not shown
chain 2: not shown
As for B3, in data set [3], the “catalytic activity” value is reported as “demonstrated close to wild-type activity”. Also, in data set [1], the “% of WT kcat/KM (against Catalyst Biosciences WT FIXa)” value amounted to 83% and the kcat/KM for activation of FX by FIXa in the Xase complex (FVIIIa, PC/PS vesicles, Ca2+), fluorogenic Spectrafluor FXa read-out amounted to 3.8e+07 M⁻¹ s⁻¹.

B4: FIXa-R318Y/R338E/E410N (protein)
chain 1: not shown
chain 2: not shown
As to B4, the “catalytic activity” value in data set [3] was “displayed some of the greatest increases in catalytic activity”.

B5: FIXa-K247N/N249S/R318Y/R338E/T343R/R403E/E410N (protein)
chain 1: not shown
chain 2: not shown
The kcat/KM is the turnover number divided by the Michaelis constant. As for B5, the “catalytic activity” value in data set [3] is given as “improved activity when combined with other mutations”. For the same protein, the catalytic efficiency (kcat/KM) in data set [4] stood at 3.8e+08 M⁻¹ s⁻¹.

B6: FIXa-K293A/R338A/R403A (protein)
chain 1: not shown
chain 2: not shown
For the protein B6, the KM in data set [1] was 0.0654 µM. Moreover, the KM of FX activation by FIXa in the Xase complex (FVIIIa, PC/PS vesicles, Ca2+); fluorogenic Spectrafluor FXa assay in data set [4] was found to be 0.0654 µM. In addition, the K0.5-mut/K0.5-wt (against Catalyst Biosciences WT FIXa), AT-III/LMWH in data set [5] amounted to 16.9 fold.

B7: FIXa-R318Y/R338E/T343R/E410N (protein)
chain 1: not shown
chain 2: not shown
As for B7, the “catalytic activity” value in data set [3] is “displayed some of the greatest increases in catalytic activity”. For the same protein, the KM in data set [1] is 0.0164 µM. In addition, the kcat/KM in data set [4] turned out to be 3.4e+08 M⁻¹ s⁻¹.

B8: FIXa-R318Y/R338E/T343R (activated CB 2679d, FIX of SEQ ID NO:394) (protein)
chain 1: not shown
chain 2: not shown
Consider B8, for which the “catalytic efficiency for the activation of FX” value in data set [3] is reported as “approximately 3-fold enhanced catalytic efficiency for the activation of FX”.

(Values after patent US11491212.)
